B1: Geminin (Homo sapiens), O75496 (parent)
chain: MNPSMKQKQEEIKENIKNSSVPRRTLKMIQPSASGSLVGRENELSAGLSKRKHRNDHLTSTTSSPGVIVPESSENKNLGGVTQESFDLMIKENPSSQYWKEVAEKRRKALYEALKENEKLHKEIEQKDNEIARLKKENKELAEVAEHVQYMAELIERLNGEPLDNFESLDNQEFDSEEETVEDSLVEDSEIGTCAEGTVSSSTDAKPCI
B2: Prolyl 4-hydroxylase subunit alpha-3 (Homo sapiens), Q7Z4N8 (parent)
chain: MGPGARLAALLAVLALGTGDPERAAARGDTFSALTSVARALAPERRLLGLLRRYLRGEEARLRDLTRFYDKVLSLHEDSTTPVANPLLAFTLIKRLQSDWRNVVHSLEASENIRALKDGYEKVEQDLPAFEDLEGAARALMRLQDVYMLNVKGLARGVFQRVTGSAITDLYSPKRLFSLTGDDCFQVGKVAYDMGDYYHAIPWLEEAVSLFRGSYGEWKTEDEASLEDALDHLAFAYFRAGNVSCALSLSREFLLYSPDNKRMARNVLKYERLLAESPNHVVAEAVIQRPNIPHLQTRDTYEGLCQTLGSQPTLYQIPSLYCSYETNSNAYLLLQPIRKEVIHLEPYIALYHDFVSDSEAQKIRELAEPWLQRSVVASGEKQLQVEYRISKSAWLKDTVDPKLVTLNHRIAALTGLDVRPPYAEYLQVVNYGIGGHYEPHFDHATSPSSPLYRMKSGNRVATFMIYLSSVEAGGATAFIYANLSVPVVRNAALFWWNLHRSGEGDSDTLHAGCPVLVGDKWVANKWIHEYGQEFRRPCSSSPED
partner: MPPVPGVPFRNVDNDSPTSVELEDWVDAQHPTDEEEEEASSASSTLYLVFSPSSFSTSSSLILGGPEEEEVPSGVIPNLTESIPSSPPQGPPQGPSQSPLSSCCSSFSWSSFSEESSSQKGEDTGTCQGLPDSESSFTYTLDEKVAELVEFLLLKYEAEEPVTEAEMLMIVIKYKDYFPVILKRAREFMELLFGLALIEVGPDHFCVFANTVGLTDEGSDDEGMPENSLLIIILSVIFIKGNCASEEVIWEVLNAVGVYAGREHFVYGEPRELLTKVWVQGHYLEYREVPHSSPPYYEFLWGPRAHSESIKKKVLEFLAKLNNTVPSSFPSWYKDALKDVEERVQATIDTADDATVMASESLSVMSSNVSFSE
B3: Myogenin (Homo sapiens), P15173 (parent)
chain: MELYETSPYFYQEPRFYDGENYLPVHLQGFEPPGYERTELTLSPEAPGPLEDKGLGTPEHCPGQCLPWACKVCKRKSVSVDRRRAATLREKRRLKKVNEAFEALKRSTLLNPNQRLPKVEILRSAIQYIERLQALLSSLNQEERDLRYRGGGGPQPGVPSECSSHSASCSPEWGSALEFSANPGDHLLTADPTDAHNLHSLTSIVDSITVEDVSVAFPDETMPN
partner: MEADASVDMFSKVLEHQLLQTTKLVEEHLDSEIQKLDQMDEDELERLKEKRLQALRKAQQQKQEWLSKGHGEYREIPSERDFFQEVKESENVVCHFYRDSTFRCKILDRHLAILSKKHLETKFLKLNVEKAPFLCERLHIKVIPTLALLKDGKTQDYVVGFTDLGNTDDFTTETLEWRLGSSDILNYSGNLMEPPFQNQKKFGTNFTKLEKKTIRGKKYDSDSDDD
B4: Double-strand-break repair protein rad21 homolog (Homo sapiens), O60216 (parent)
chain: MFYAHFVLSKRGPLAKIWLAAHWDKKLTKAHVFECNLESSVESIISPKVKMALRTSGHLLLGVVRIYHRKAKYLLADCNEAFIKIKMAFRPGVVDLPEENREAAYNAITLPEEFHDFDQPLPDLDDIDVAQQFSLNQSRVEEITMREEVGNISILQENDFGDFGMDDREIMREGSAFEDDDMLVSTTTSNLLLESEQSTSNLNEKINHLEYEDQYKDDNFGEGNDGGILDDKLISNNDGGIFDDPPALSEAGVMLPEQPAHDDMDEDDNVSMGGPDSPDSVDPVEPMPTMTDQTTLVPNEEEAFALEPIDITVKETKAKRKRKLIVDSVKELDSKTIRAQLSDYSDIVTTLDLAPPTKKLMMWKETGGVEKLFSLPAQPLWNNRLLKLFTRCLTPLVPEDLRKRRKGGEADNLDEFLKEFENPEVPREDQQQQHQQRDVIDEPIIEEPSRLQESVMEASRTNIDESAMPPPPPQGVKRKAGQIDPEPVMPPQQVEQMEIPPVELPPEEPPNICQLIPELELLPEKEKEKEKEKEDDEEEEDEDASGGDQDQEERRWNKRTQQMLHGLQRALAKTGAESISLLELCRNTNRKQAAAKFYSFLVLKKQQAIELTQEEPYSDIIATPGPRFHII

Variants of: B1
Conditions: with zn439_human ZNF439, Q8NDP4
zn439_human ZNF439, Q8NDP4, sequence (Q8NDP4 whole entry): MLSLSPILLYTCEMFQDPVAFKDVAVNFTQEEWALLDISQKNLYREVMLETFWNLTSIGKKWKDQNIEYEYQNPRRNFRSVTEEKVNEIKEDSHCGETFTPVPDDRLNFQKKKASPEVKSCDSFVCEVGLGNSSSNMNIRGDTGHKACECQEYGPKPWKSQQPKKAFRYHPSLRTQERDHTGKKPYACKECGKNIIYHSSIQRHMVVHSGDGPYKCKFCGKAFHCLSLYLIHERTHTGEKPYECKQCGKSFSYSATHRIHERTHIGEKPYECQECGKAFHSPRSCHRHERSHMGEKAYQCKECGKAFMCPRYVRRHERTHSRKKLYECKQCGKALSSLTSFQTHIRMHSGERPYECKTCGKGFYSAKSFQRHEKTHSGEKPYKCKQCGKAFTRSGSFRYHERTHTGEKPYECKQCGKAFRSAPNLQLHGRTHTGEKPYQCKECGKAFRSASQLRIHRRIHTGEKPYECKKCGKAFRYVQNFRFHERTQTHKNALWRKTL

Variant | effect of a mutation on the interaction
E167D | with no effect
N15H | with no effect

Variants of: B2
Conditions: with magc2_human MAGEC2, Q9UBF1

Variant | effect of a mutation on the interaction
S378L | disrupting interaction strength

Variants of: B3
Conditions: with txnd9_human TXNDC9, O14530

Variant | effect of a mutation on the interaction
A181T | disrupting interaction strength
P49H | with no effect

Variants of: B4
Conditions: with fhl3_human FHL3, Q13643
fhl3_human FHL3, Q13643, sequence (Q13643 whole entry): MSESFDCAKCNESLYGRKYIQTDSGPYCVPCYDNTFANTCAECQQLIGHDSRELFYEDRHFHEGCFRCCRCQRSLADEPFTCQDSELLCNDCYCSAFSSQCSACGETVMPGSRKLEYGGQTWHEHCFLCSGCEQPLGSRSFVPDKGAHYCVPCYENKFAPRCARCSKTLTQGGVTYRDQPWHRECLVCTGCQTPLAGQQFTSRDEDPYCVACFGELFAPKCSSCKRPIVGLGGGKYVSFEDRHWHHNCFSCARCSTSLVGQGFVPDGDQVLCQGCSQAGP

Variant | effect of a mutation on the interaction
D95H | with no effect
P426S | with no effect
M362L | with no effect
D414E | with no effect
I45V | with no effect
P443L | with no effect
